# According to US20110166062A1 (INDIANA UNIVERSITY RESEARCH AND TECHNOLOGY, published 2011):
# Like-named read-outs stand apart in the source and are kept apart here. Where no end group is shown, it is not given here. [ ]: non-standard residue; d: D form. The star is where a group is joined. PEG 40 kDa = PEG (40 kDa) covalently attached to Cys; Myristoyl = CCCCCCCCCCCCCC(=O)*; Abu = CC[C@H](N)C(=O)O; Aib = CC(C)(N)C(=O)O
# T1: GIP receptor (UniProt P48546 22-466)
# T1 sequence (looked up): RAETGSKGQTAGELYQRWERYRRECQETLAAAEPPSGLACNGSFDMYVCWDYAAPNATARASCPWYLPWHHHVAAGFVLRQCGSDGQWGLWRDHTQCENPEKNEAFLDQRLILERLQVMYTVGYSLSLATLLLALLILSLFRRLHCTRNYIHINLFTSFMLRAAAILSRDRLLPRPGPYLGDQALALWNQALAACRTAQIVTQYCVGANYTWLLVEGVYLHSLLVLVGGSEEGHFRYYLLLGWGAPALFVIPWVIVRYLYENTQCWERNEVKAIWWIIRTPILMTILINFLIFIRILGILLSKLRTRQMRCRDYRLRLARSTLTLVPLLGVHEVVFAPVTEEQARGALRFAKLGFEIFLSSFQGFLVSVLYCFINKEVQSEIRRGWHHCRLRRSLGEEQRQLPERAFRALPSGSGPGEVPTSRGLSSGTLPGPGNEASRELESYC
# B1: mt-325 (peptide)
# peptide: Y[Aib]QGTF[Abu]SDYSIYLDKQAA[Aib]EFVNWLLAGGPSSGAPPPSC-NH2
# modifications: N-terminus assumed
# SMILES: CC[C@H](NC(=O)[C@H](Cc1ccccc1)NC(=O)[C@@H](NC(=O)CNC(=O)[C@H](CCC(N)=O)NC(=O)C(C)(C)NC(=O)[C@@H](N)Cc1ccc(O)cc1)[C@@H](C)O)C(=O)N[C@@H](CO)C(=O)N[C@@H](CC(=O)O)C(=O)N[C@@H](Cc1ccc(O)cc1)C(=O)N[C@@H](CO)C(=O)N[C@H](C(=O)N[C@@H](Cc1ccc(O)cc1)C(=O)N[C@@H](CC(C)C)C(=O)N[C@@H](CC(=O)O)C(=O)N[C@@H](CCCCN)C(=O)N[C@@H](CCC(N)=O)C(=O)N[C@@H](C)C(=O)N[C@@H](C)C(=O)NC(C)(C)C(=O)N[C@@H](CCC(=O)O)C(=O)N[C@@H](Cc1ccccc1)C(=O)N[C@H](C(=O)N[C@@H](CC(N)=O)C(=O)N[C@@H](Cc1c[nH]c2ccccc12)C(=O)N[C@@H](CC(C)C)C(=O)N[C@@H](CC(C)C)C(=O)N[C@@H](C)C(=O)NCC(=O)NCC(=O)N1CCC[C@H]1C(=O)N[C@@H](CO)C(=O)N[C@@H](CO)C(=O)NCC(=O)N[C@@H](C)C(=O)N1CCC[C@H]1C(=O)N1CCC[C@H]1C(=O)N1CCC[C@H]1C(=O)N[C@@H](CO)C(=O)N[C@@H](CS)C(N)=O)C(C)C)[C@@H](C)CC
# B2: mt-194 (peptide)
# peptide: [Aib]QGTFTSDYSIYLDEEAVRLFVNWLLAGGPSSGAPPPS-NH2
# modifications: N-terminus assumed
# SMILES: CC[C@H](C)[C@H](NC(=O)[C@H](CO)NC(=O)[C@H](Cc1ccc(O)cc1)NC(=O)[C@H](CC(=O)O)NC(=O)[C@H](CO)NC(=O)[C@@H](NC(=O)[C@H](Cc1ccccc1)NC(=O)[C@@H](NC(=O)CNC(=O)[C@H](CCC(N)=O)NC(=O)C(C)(C)N)[C@@H](C)O)[C@@H](C)O)C(=O)N[C@@H](Cc1ccc(O)cc1)C(=O)N[C@@H](CC(C)C)C(=O)N[C@@H](CC(=O)O)C(=O)N[C@@H](CCC(=O)O)C(=O)N[C@@H](CCC(=O)O)C(=O)N[C@@H](C)C(=O)N[C@H](C(=O)N[C@@H](CCCNC(=N)N)C(=O)N[C@@H](CC(C)C)C(=O)N[C@@H](Cc1ccccc1)C(=O)N[C@H](C(=O)N[C@@H](CC(N)=O)C(=O)N[C@@H](Cc1c[nH]c2ccccc12)C(=O)N[C@@H](CC(C)C)C(=O)N[C@@H](CC(C)C)C(=O)N[C@@H](C)C(=O)NCC(=O)NCC(=O)N1CCC[C@H]1C(=O)N[C@@H](CO)C(=O)N[C@@H](CO)C(=O)NCC(=O)N[C@@H](C)C(=O)N1CCC[C@H]1C(=O)N1CCC[C@H]1C(=O)N1CCC[C@H]1C(=O)N[C@@H](CO)C(N)=O)C(C)C)C(C)C
# Experiments:
# Assay in all cases: cell-based or functional assay
# GIP receptor = target: T1, GIP receptor
# GLP-1 receptor [1] = target: GLP-1 receptor (UniProt P43220 24-463, limits assumed)
# glucagon receptor = glucagon receptor (UniProt P47871 26-477, limits assumed)
# GLP-1 receptor [2] = target: GLP-1 receptor (UniProt P43220 24-463, limits assumed); remark: listed apart in the source
# Chain of glucagon receptor (P47871 26-477 limits assumed): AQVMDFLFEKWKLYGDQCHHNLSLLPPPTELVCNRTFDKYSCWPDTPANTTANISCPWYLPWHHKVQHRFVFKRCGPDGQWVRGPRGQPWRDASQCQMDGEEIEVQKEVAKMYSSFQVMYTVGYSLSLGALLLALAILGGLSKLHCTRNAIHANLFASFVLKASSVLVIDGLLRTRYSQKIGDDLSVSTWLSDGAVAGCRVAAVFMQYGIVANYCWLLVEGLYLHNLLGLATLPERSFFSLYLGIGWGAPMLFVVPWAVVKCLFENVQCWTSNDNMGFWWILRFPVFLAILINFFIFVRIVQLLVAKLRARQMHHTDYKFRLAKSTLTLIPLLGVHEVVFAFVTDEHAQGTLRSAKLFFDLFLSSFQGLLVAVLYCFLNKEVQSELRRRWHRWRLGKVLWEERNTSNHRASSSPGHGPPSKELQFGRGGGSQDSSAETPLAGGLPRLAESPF
Binder,EC50 (GIP receptor) [nM],EC50 (GLP-1 receptor [1]) [nM],EC50 (glucagon receptor) [nM],relative activity (GIP receptor) [%],relative activity (GLP-1 receptor [1]) [%],relative activity (glucagon receptor) [%],EC50 (GLP-1 receptor [2]) [nM],relative activity (GLP-1 receptor [2]) [%]
Y[Aib]EGTFTSDYSIYLDKQAA[Aib]EFVNWLLAGGPSSGAPPPSK(Myristoyl)C-NH2 [mt-339],0.004,0.0092,8.72,–,–,–,–,–
Y[Aib]EGTFTSDYSIYLDKQAA[Aib]EFVNWLLAGGPSSGAPPPSKC-NH2 [mt-340],0.0028,0.0061,10.5,–,–,–,–,–
B1,0.0105,2.68,0.0915,111,0.83,86.5,–,–
Y[Aib]EGTFTSDYSIYLDKQAA[Aib]EFVC(PEG 40 kDa)WLLAGGPSSGAPPPSK-NH2 (also: PEG linkage structure not given here) [mt-331],0.0968,0.448,408,10.6,4.53,0.02,–,–
B2,–,–,–,–,–,–,4.16,0.63
FTSDYSIYLDEQAAKEFVNWLLAGGPSSGAPPPS-NH2 (not fully specified) [mt-192],–,–,–,–,–,–,47,0.06
